Three molecules from patent US7547662 (KIMBERLY CLARK WORLDWIDE, dated 2009) can be followed below.

Test [1] has as its target T1, Bovine trypsin (Sigma Chemical Co.) (bovine, UniProt P00760 24-246).
T1 construct: Unlabelled in ITC; Oregon Green labelled in the library screening assay; also called bovine pancreatic trypsin
The test can be described thus: ITC, binding agent injected into bovine trypsin, 293 K. As to the method: (§1) Isothermal titration calorimetry (ITC) was performed with a VP-ITC instrument from MicroCal, Inc. Titrations were carried out by injecting 5 µL of a binding agent (at concentration ranges from 0.5 mM to 1.0 mM) into the 1.4 mL stirred reaction cell. Bovine trypsin (Sigma Chemical Co.) ranged in concentration from 10 to 30 μM in the cell. Both the inhibitor and the enzyme were in 20 mM sodium cacodylate (pH 6.9), 40 mM NaCl. Titrations were conducted at 20° C. Typical experimental conditions for the titrations were a 10 second injection period followed by a 240 second delay between injections for a total of 40 injections. Blank titrations of binding agent into buffer were performed in order to correct for heats of dilution and mixing.
(§2) The ability of three binding agents (SEQ ID NO:4, SEQ ID NO:33 and 35) was tested to ascertain whether they could effectively bind bovine trypsin. Binding was measured by isothermal titration calorimetry (ITC).
Figure 9: FIG. 9 is a graph illustrating the binding between the computer-generated loop i variant and bovine pancreatic trypsin as analyzed by ITC analysis. Binding reagents and trypsin were dialyzed into 20 mM sodium cacodylate (pH 6.9), 40 mM NaCl. The binding reagent was at a concentration of 1 mM and trypsin was used in the calorimeter cell at a concentration of 20 μM. The temperature was maintained at 20° C. 40 injections of 5 μL each were employed with a 240 second re-equilibrium time between injections.

In test [2] the target is T1, Bovine trypsin (Sigma Chemical Co.). The test is described as follows: ITC, binding agent injected into bovine trypsin in the cell, 20 C. As to the method: as §1, §2

T1 sequence (P00760 24-246): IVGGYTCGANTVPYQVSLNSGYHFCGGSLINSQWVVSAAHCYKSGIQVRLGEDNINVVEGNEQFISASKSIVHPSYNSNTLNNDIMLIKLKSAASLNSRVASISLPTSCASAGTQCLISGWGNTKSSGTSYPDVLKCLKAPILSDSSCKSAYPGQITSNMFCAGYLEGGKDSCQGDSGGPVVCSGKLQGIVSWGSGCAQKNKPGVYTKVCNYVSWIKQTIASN

B1: Loop i variant from computer search (parental binding agent with loop i ITAVCHK, SEQ ID NO:35) (designed binder)
chain: MDVQLQASGGGSVQAGGSLRLSCAASITAVCHKCAGWFRQAPGKEREGVAAINAGAAGTSYADSVKGRFTISQLAGAANVYLLMNSLEPEDTAIYYCAAGHAGAAGAATCGHGLSTAGAAGAPWGQGTQVTVSS
notes: The protein was then made, expressed and purified, and tested by ITC; also called Loop i Variant Computer; computer-generated loop i variant; not shown: C-terminal hexa-histidine tag added by the vector construct
Consider B1, for which, in test [1], the Ka was 622000 M⁻¹, the Stoichiometry amounted to 1.02 and the ΔS is -96.6 cal mol^-1 K^-1.

B2: Loop i variant from library screening (parental binding agent with loop i RYLRYPS, SEQ ID NO:33) (designed binder)
chain: MDVQLQASGGGSVQAGGSLRLSCAASRYLRYPSCAGWFRQAPGKEREGVAAINAGAAGTSYADSVKGRFTISQLAGAANVYLLMNSLEPEDTAIYYCAAGHAGAAGAATCGHGLSTAGAAGAPWGQGTQVTVSS
notes: The clone came from a library in which loops i to v were randomised; also called Loop i variant Screening; Biological Screen; not shown: C-terminal hexa-histidine tag added by the vector construct
In test [1], B2 returned a Ka of 1.65e+06 M⁻¹, a Stoichiometry of 0.99 and a ΔS of -102 cal mol^-1 K^-1.

B3: Parental binding agent (generic binding agent, SEQ ID NO:4, Ala/Gly loops) (designed binder)
chain: MDVQLQASGGGSVQAGGSLRLSCAASAGAAGAACAGWFRQAPGKEREGVAAINAGAAGTSYADSVKGRFTISQLAGAANVYLLMNSLEPEDTAIYYCAAGHAGAAGAATCGHGLSTAGAAGAPWGQGTQVTVSS
notes: Camelid VHH-derived beta barrel scaffold, all five loops Ala/Gly; Expressed in E. coli as a monomeric C-terminal His-Tag fusion; not shown: C-terminal hexa-histidine tag added by the vector construct
Consider B3, for which, in test [2], the binding result was “no binding”.
